Data published in the supplement of paper PMC10724198.
± gives the standard deviation of the averaged measurements.

Tests used:
Saccharomyces cerevisiae [1] = experiment: protein stability index of tFT-peptide fusion (C-terminal peptide) (PSI (0-1 scale)); higher = more stable (slower turnover)
Description: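 MPS profiling in S. cerevisiae of the tFT-X12 degron library: putative degron peptides plus stable controls, 12 aa, fused to the C-terminus of a sfGFP-mCherry timer. Cells are FACS-sorted into 8 mCherry/sfGFP bins and deep-sequenced. PSI runs from 0 (unstable) to 1 (stable). Backgrounds are wild type, das1Δ and doa10Δ at 30 °C, and wild type, das1Δ, cdc34-1 and cdc53-1 at 37 °C; 2-3 technical replicates each.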

Saccharomyces cerevisiae [2] = experiment: as above; details: genetic background: wild type; temperature: 30 C
[3] = genetic background: cdc34-1, temperature: 37 C
[4] = genetic background: cdc53-1, temperature: 37 C
[5] = genetic background: das1 deletion, temperature: 30 C
[6] = genetic background: das1 deletion, temperature: 37 C
[7] = genetic background: doa10 deletion, temperature: 30 C
[8] = genetic background: wild type, temperature: 30 C
[9] = genetic background: wild type, temperature: 37 C
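Note: PSI is a weighted mean of sequencing reads over stability bins, variants kept only with over 10 reads, mCherry proximal and sfGFP distal, peptide attached via GGGS linker.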

Row | Sequence | protein stability index (Saccharomyces cerevisiae [1]; [3]) | protein stability index (Saccharomyces cerevisiae [1]; [4]) | protein stability index (Saccharomyces cerevisiae [1]; [5]) | protein stability index (Saccharomyces cerevisiae [1]; [6]) | protein stability index (Saccharomyces cerevisiae [1]; [7]) | protein stability index (Saccharomyces cerevisiae [1]; [8]) | protein stability index (Saccharomyces cerevisiae [1]; [9]) | protein stability index (Saccharomyces cerevisiae [2])
1 | EFEIALTLIRSI | 0.665 ± 0.026 | 0.733 ± 0.0039 | 0.593 ± 0.01 | 0.726 ± 0.011 | 0.304 ± 0.009 | 0.361 ± 0.055 | 0.572 ± 0.031 | 0.49 ± 0.057
2 | EFFILYFFLKVL | 0.195 ± 0.007 | 0.274 ± 0.0064 | 0.21 ± 0.03 | 0.393 ± 0.0076 | 0.104 ± 0.01 | 0.116 ± 0.023 | 0.179 ± 0.0019 | 0.199 ± 0.021
3 | EFVACFRLLVHG | 0.3077 ± 0.003 | 0.368 ± 0.04 | 0.278 ± 0.021 | 0.441 ± 0.012 | 0.2322 ± 0.0015 | 0.269 ± 0.027 | 0.4091 ± 0.0033 | 0.392 ± 0.014
4 | EGLCCGAYFLVF | 0.695 ± 0.038 | 0.7228 ± 0.00076 | 0.584 ± 0.034 | 0.709 ± 0.0098 | 0.558 ± 0.014 | 0.587 ± 0.035 | 0.6751 ± 0.0057 | 0.571 ± 0.14
5 | EGLDVRILIQVI | 0.0334 ± 0.016 | 0.0735 ± 0.0072 | 0.179 ± 0.025 | 0.197 ± 0.0041 | 0.1362 ± 0.0008 | 0.164 ± 0.025 | 0.154 ± 0.019 | 0.294 ± 0.0068
6 | EKTKRGLIQRVV | 0.68 ± 0.064 | 0.721 ± 0.012 | 0.641 ± 0.021 | 0.693 ± 0.015 | 0.247 ± 0.016 | 0.293 ± 0.046 | 0.554 ± 0.025 | 0.3931 ± 0.0028
7 | ESRRGILFIYIN | 0.325 ± 0.049 | 0.601 ± 0.027 | 0.475 ± 0.025 | 0.647 ± 0.038 | 0.0808 ± 0.028 | 0.0867 ± 0.0055 | 0.0749 ± 0.024 | 0.13 ± 0.005
8 | ETCFSFVCSVQC | 0.328 ± 0.013 | 0.325 ± 0.025 | 0.284 ± 0.036 | 0.4019 ± 0.0023 | 0.221 ± 0.012 | 0.281 ± 0.02 | 0.385 ± 0.0093 | 0.398 ± 0.0044
9 | EVFLARKRSMVV | 0.593 ± 0.043 | 0.677 ± 0.058 | 0.537 ± 0.036 | 0.67627 ± 0.00012 | 0.175 ± 0.019 | 0.214 ± 0.015 | 0.418 ± 0.0088 | 0.341 ± 0.03
10 | EWVWVVFSCVSW | 0.303 ± 0.027 | 0.429 ± 0.0099 | 0.307 ± 0.029 | 0.435 ± 0.012 | 0.2932 ± 0.0027 | 0.32 ± 0.012 | 0.432 ± 0.024 | 0.3472 ± 0.0015
11 | FAIRMHCLIFRC | 0.123 ± 0.05 | 0.15 ± 0.024 | 0.26 ± 0.048 | 0.343 ± 0.036 | 0.2 ± 0.0056 | 0.124 ± 0.02 | 0.185 ± 0.0043 | 0.19 ± 0.0057
12 | FCSVFAHFLLCH | 0.382 ± 0.011 | 0.443 ± 0.0052 | 0.4 ± 0.013 | 0.49 ± 0.0094 | 0.193 ± 0.005 | 0.207 ± 0.013 | 0.271 ± 0.0043 | 0.264 ± 0.0032
13 | FFCCVLFSIVVY | 0.0536 ± 0.029 | 0.0863 ± 0.019 | 0.129 ± 0.026 | 0.167 ± 0.002 | 0.103 ± 0.0065 | 0.104 ± 0.028 | 0.114 ± 0.024 | 0.171 ± 0.0089
14 | FFFSFSFPFLSF | 0.462 ± 0.014 | 0.481 ± 0.027 | 0.464 ± 0.023 | 0.559 ± 0.0068 | 0.55 ± 0.022 | 0.477 ± 0.018 | 0.555 ± 0.031 | 0.518 ± 0.034
15 | FFFSLFFVLFFA | 0.284 ± 0.035 | 0.23 ± 0.011 | 0.21 ± 0.035 | 0.348 ± 0.061 | 0.323 ± 0.028 | 0.2 ± 0.022 | 0.314 ± 0.013 | 0.22 ± 0.0051
16 | FFGRWWWSFLLA | 0.582 ± 0.038 | 0.634 ± 0.0095 | 0.538 ± 0.019 | 0.663 ± 0.012 | 0.262 ± 0.0098 | 0.261 ± 0.033 | 0.443 ± 0.026 | 0.364 ± 0.026
17 | FFLDVMFLLFFF | 0.501 ± 0.062 | – | 0.399 ± 0.036 | 0.524 ± 0.008 | 0.44 ± 0.022 | 0.399 ± 0.021 | 0.513 ± 0.0088 | 0.445 ± 0.037
18 | FFLLFCASFLRC | 0.281 ± 0.021 | 0.202 ± 0.01 | 0.317 ± 0.011 | 0.433 ± 0.053 | 0.3661 ± 0.0025 | 0.294 ± 0.029 | 0.354 ± 0.0037 | 0.381 ± 0.014
19 | FFLSFICVMLCG | 0.192 ± 0.024 | 0.247 ± 0.024 | 0.173 ± 0.013 | 0.303 ± 0.0073 | 0.165 ± 0.0019 | 0.158 ± 0.011 | 0.2575 ± 0.0025 | 0.237 ± 0.027
20 | FFSGSVFMAVSL | 0.387 ± 0.011 | 0.44 ± 0.0097 | 0.444 ± 0.04 | 0.399 ± 0.017 | 0.467 ± 0.036 | 0.433 ± 0.02 | 0.37901 ± 0.00016 | 0.408 ± 0.008

Row | Sequence | protein stability index (Saccharomyces cerevisiae [1]; [3]) | protein stability index (Saccharomyces cerevisiae [1]; [4]) | protein stability index (Saccharomyces cerevisiae [1]; [5]) | protein stability index (Saccharomyces cerevisiae [1]; [6]) | protein stability index (Saccharomyces cerevisiae [1]; [7]) | protein stability index (Saccharomyces cerevisiae [1]; [8]) | protein stability index (Saccharomyces cerevisiae [1]; [9]) | protein stability index (Saccharomyces cerevisiae [2])
21 | FFVWGVFLGVSW | 0.229 ± 0.033 | 0.264 ± 0.016 | 0.265 ± 0.043 | 0.406 ± 0.005 | 0.297 ± 0.015 | 0.25 ± 0.026 | 0.362 ± 0.0063 | 0.358 ± 0.012
22 | FGEDFCHLLWCC | 0.623 ± 0.033 | 0.713 ± 0.021 | 0.583 ± 0.026 | 0.725 ± 0.011 | 0.347 ± 0.0051 | 0.374 ± 0.027 | 0.542 ± 0.018 | 0.442 ± 0.014
23 | FGFSFLHLFIFF | 0.429 ± 0.051 | 0.395 ± 0.028 | 0.375 ± 0.033 | 0.519 ± 0.03 | 0.443 ± 0.011 | 0.313 ± 0.038 | 0.457 ± 0.013 | 0.399 ± 0.035
24 | FGGICFAVLLCR | 0.246 ± 0.016 | 0.262 ± 0.0027 | 0.263 ± 0.035 | 0.3926 ± 0.0036 | 0.258 ± 0.0034 | 0.244 ± 0.0097 | 0.357 ± 0.021 | 0.343 ± 0.013
25 | FHICTQLIFITC | 0.06103 ± 0.00047 | 0.0651 ± 0.015 | 0.146 ± 0.029 | 0.198 ± 0.0078 | 0.114 ± 0.0037 | 0.127 ± 0.0084 | 0.145 ± 0.0024 | 0.192 ± 0.025
26 | FILCGFSVVLIG | 0.153 ± 0.033 | 0.245 ± 0.0032 | 0.191 ± 0.036 | 0.395 ± 0.016 | 0.162 ± 0.019 | 0.184 ± 0.048 | 0.372 ± 0.014 | 0.255 ± 0.12
27 | FILLIFLSLLSP | 0.352 ± 0.0047 | 0.416 ± 0.024 | 0.294 ± 0.029 | 0.454 ± 0.01 | 0.26 ± 0.0071 | 0.281 ± 0.043 | 0.427 ± 0.016 | 0.3211 ± 0.0026
28 | FIPPRTYCLMIG | 0.57632 ± 0.00037 | 0.682 ± 0.0096 | 0.58 ± 0.0063 | 0.693 ± 0.011 | 0.219 ± 0.0046 | 0.233 ± 0.026 | 0.297 ± 0.015 | 0.323 ± 0.024
29 | FIRLFLVSFFIS | 0.405 ± 0.048 | 0.451 ± 0.027 | 0.375 ± 0.019 | 0.567 ± 0.032 | 0.174 ± 0.013 | 0.189 ± 0.022 | 0.298 ± 0.0093 | 0.31 ± 0.089
30 | FLACYSSFLFVS | 0.417 ± 0.034 | 0.576 ± 0.011 | 0.4917 ± 0.0018 | 0.587 ± 0.0092 | 0.0703 ± 0.024 | 0.0895 ± 0.022 | 0.136 ± 0.0035 | 0.149 ± 0.03
31 | FLCFFGGCFFLV | 0.581 ± 0.032 | 0.646 ± 0.06 | 0.523 ± 0.029 | 0.6462 ± 0.0016 | 0.4162 ± 0.0038 | 0.401 ± 0.025 | 0.5617 ± 0.0015 | 0.468 ± 0.0077
32 | FLCLLFYLSFFS | 0.55 ± 0.018 | 0.5422 ± 4.9e-05 | 0.404 ± 0.028 | 0.572 ± 0.0078 | 0.378 ± 0.021 | 0.391 ± 0.021 | 0.5482 ± 0.0007 | 0.415 ± 0.029
33 | FLFWVLLVGCSF | 0.244 ± 0.0058 | 0.299 ± 0.012 | 0.245 ± 0.035 | 0.3748 ± 0.0029 | 0.206 ± 0.015 | 0.206 ± 0.021 | 0.334 ± 0.013 | 0.304 ± 0.028
34 | FLGVFFYFLLCV | 0.235 ± 0.02 | 0.2583 ± 0.002 | 0.254 ± 0.026 | 0.35871 ± 0.00032 | 0.2529 ± 0.0012 | 0.239 ± 0.013 | 0.326 ± 0.0064 | 0.379 ± 0.03
35 | FLLAIVRGVWLA | 0.15 ± 0.029 | 0.115 ± 0.0084 | 0.257 ± 0.034 | 0.339 ± 0.014 | 0.154 ± 0.01 | 0.104 ± 0.032 | 0.112 ± 0.0028 | 0.176 ± 0.014
36 | FLPHLMCVFSFC | 0.456 ± 0.05 | 0.489 ± 0.01 | 0.394 ± 0.028 | 0.522 ± 0.0054 | 0.3324 ± 0.0015 | 0.334 ± 0.016 | 0.465 ± 0.0064 | 0.382 ± 0.0022
37 | FLVFRPPALFLR | 0.0932 ± 0.018 | 0.0985 ± 0.0088 | 0.198 ± 0.024 | 0.268 ± 0.013 | 0.611 ± 0.01 | 0.22 ± 0.017 | 0.219 ± 0.0054 | 0.218 ± 0.18
38 | FLVVCGLLSWVW | 0.324 ± 0.00073 | 0.407 ± 0.029 | 0.263 ± 0.039 | 0.455 ± 0.015 | 0.232 ± 0.0053 | 0.28 ± 0.032 | 0.4291 ± 0.003 | 0.348 ± 0.05
39 | FLVVSSVGFPLL | 0.676 ± 0.017 | 0.73 ± 0.0085 | 0.626 ± 0.018 | 0.729 ± 0.027 | 0.618 ± 0.011 | 0.628 ± 0.014 | 0.714 ± 0.014 | 0.467 ± 0.027
